Reference: patent US20220402985A1
Positions count from the first letter of the chain named. Numbers in names are those of the source. Where “and” joins values, the source holds several entries; their conditions need not be identical. Equal entries are not always repeated.

B1: huNRG1(S177-Q237)(NRGE1P)::GG::huFcSEFL2 (Pb) (Fc fusion)
chain: SHLVKCAESHKSFCVNGGECFMIEGPSNPSRYLCKCPNEFTGDRCQDFFMASFYKAEELYQGGDKTHTCPPCPAPELLGGPSVFLFPPKPKDTLMISRTPEVTCVVVDVSHEDPEVKFNWYVDGVEVHNAKTKPCEEQYGSTYRCVSVLTVLHQDWLNGKEYKCKVSNKALPAPIEKTISKAKGQPREPQVYTLPPSREEMTKNQVSLTCLVKGFYPSDIAVEWESNGQPENNYKTTPPVLDSDGSFFLYSKLTVDKSRWQQGNVFSCSVMHEALHNHYTQKSLSLSPGK
B2: huNRG1(S177-Q237)(1D3)::GG::huFcSEFL2 (Pb) (Fc fusion)
chain: B1 chain with A7G, S9N, H10D, M22V, G25D, N28I, D47N, F48D, M50L
B3: huNRG1(S177-F229)(NRGE1C) 6xHis (ligand)
chain: SHLVKCGEKHKSFCVNGGECFMIEGPSNPSRYLCKCPNEFTGDRCQEDFMASFGGGGEGGGGAGGGGHHHHHH
B4: huNRG1(S177-F229)(NRGE1C) (D48T_F49Q_M50I) 6xHis (ligand)
chain: B3 chain with D48T, F49Q, M50I
B5: huNRG1(S177-F229)(NRGE1C) (E47A_D48P_F49H_M50I) 6xHis (ligand)
chain: B3 chain with E47A, D48P, F49H, M50I
B6: huNRG1(S177-F229)(NRGE1C) (E47K_D48T_F49S_M50L) 6xHis (ligand)
chain: B3 chain with E47K, D48T, F49S, M50L
B7: huNRG1(S177-F229)(NRGE1C) (E47S_D48A_F49L_M50T) 6xHis (ligand)
chain: B3 chain with E47S, D48A, F49L, M50T
B8: huNRG1(S177-F229)(NRGE1C) (E47S_D48T_F49R_M50V) 6xHis (ligand)
chain: B3 chain with E47S, D48T, F49R, M50V
B9: huNRG1(S177-F229)(NRGE1D) 6xHis (ligand)
chain: B3 chain with K9S, F21Y, I23V, P26S, N28I
B10: huNRG1(S177-F229)(NRGE1D) (E47K_D48L_F49D_M50I) 6xHis (ligand)
chain: B3 chain with K9S, F21Y, I23V, P26S, N28I, E47K, D48L, F49D, M50I
B11: huNRG1(S177-F229)(NRGE1D) (E47S_D48S_F49E_M50L) 6xHis (ligand)
chain: B3 chain with K9S, F21Y, I23V, P26S, N28I, E47S, D48S, F49E, M50L
B12: huNRG1(S177-F229)(NRGE1D) (E47T_D48S_F49L_M50L) 6xHis (ligand)
chain: B3 chain with K9S, F21Y, I23V, P26S, N28I, E47T, D48S, F49L, M50L
B13: huNRG1(S177-F229)(NRGE1D) (E47V_D48T_F49R_M50L) 6xHis (ligand)
chain: B3 chain with K9S, F21Y, I23V, P26S, N28I, E47V, D48T, F49R, M50L
B14: huNRG1(S177-F229) 6xHis (ligand)
chain: SHLVKCAEKEKTFCVNGGECFMVKDLSNPSRYLCKCPNEFTGDRCQNYVMASFGGGGEGGGGAGGGGHHHHHH
B15: huNRG1(S177-F229)(NRGE1D)::1KmodT482V, M493L)::huFcSEFL2 (Pb) (Fc fusion)
chain: SHLVKCGESHKSFCVNGGECYMVEGSSIPSRYLCKCPNEFTGDRCQEDFMASFGSGSATGGSGSVASSGSGSATHLDKTHTCPPCPAPELLGGPSVFLFPPKPKDTLMISRTPEVTCVVVDVSHEDPEVKFNWYVDGVEVHNAKTKPCEEQYGSTYRCVSVLTVLHQDWLNGKEYKCKVSNKALPAPIEKTISKAKGQPREPQVYTLPPSREEMTKNQVSLTCLVKGFYPSDIAVEWESNGQPENNYKTTPPVLDSDGSFFLYSKLTVDKSRWQQGNVFSCSVMHEALHNHYTQKSLSLSPGK

Key:
[1] = biological target: ErbB3 on rat Schwann cells (rat) (UniProt Q62799); assay: cell-based or functional assay
ErbB3 on rat Schwann cells (rat), sequence (Q62799 20-1339): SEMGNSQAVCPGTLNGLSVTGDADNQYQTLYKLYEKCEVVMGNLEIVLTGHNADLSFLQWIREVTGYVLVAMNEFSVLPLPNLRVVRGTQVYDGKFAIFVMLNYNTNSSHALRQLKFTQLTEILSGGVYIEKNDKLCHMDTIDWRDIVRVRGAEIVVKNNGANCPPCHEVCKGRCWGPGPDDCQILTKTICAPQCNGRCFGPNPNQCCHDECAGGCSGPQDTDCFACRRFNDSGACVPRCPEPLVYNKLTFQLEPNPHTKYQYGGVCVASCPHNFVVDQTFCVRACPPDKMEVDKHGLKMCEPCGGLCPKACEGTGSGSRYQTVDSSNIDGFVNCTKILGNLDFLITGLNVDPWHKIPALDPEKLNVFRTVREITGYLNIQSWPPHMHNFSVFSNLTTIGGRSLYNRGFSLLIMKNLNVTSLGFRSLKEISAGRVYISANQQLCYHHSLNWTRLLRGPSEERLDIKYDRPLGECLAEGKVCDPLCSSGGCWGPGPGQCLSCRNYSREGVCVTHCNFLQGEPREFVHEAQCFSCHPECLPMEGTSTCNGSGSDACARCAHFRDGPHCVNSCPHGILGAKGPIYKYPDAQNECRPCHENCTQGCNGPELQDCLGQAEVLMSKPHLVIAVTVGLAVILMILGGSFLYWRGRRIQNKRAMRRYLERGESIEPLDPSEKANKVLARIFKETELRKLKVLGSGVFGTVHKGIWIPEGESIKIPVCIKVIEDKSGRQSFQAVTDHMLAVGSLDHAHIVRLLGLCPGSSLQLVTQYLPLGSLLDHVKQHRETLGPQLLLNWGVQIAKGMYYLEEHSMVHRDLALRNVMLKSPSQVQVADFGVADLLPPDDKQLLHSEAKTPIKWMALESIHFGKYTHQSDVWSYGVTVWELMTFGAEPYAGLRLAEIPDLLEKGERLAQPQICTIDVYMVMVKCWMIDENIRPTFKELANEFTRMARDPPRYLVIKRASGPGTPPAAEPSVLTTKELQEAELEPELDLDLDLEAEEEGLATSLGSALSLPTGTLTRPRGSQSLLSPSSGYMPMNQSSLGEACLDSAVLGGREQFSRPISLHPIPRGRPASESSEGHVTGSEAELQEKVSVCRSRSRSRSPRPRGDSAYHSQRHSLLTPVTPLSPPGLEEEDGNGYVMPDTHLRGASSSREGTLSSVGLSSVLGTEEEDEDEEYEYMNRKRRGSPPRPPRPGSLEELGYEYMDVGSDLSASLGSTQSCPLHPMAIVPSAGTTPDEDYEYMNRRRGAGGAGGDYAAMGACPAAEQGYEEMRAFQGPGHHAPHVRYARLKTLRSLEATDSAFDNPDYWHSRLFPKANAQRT

[2] = biological target: ErbB4 on neonatal rat cardiomyocytes (rat) (UniProt Q62956); assay: cell-based or functional assay
ErbB4 on neonatal rat cardiomyocytes (rat), sequence (Q62956 26-1308): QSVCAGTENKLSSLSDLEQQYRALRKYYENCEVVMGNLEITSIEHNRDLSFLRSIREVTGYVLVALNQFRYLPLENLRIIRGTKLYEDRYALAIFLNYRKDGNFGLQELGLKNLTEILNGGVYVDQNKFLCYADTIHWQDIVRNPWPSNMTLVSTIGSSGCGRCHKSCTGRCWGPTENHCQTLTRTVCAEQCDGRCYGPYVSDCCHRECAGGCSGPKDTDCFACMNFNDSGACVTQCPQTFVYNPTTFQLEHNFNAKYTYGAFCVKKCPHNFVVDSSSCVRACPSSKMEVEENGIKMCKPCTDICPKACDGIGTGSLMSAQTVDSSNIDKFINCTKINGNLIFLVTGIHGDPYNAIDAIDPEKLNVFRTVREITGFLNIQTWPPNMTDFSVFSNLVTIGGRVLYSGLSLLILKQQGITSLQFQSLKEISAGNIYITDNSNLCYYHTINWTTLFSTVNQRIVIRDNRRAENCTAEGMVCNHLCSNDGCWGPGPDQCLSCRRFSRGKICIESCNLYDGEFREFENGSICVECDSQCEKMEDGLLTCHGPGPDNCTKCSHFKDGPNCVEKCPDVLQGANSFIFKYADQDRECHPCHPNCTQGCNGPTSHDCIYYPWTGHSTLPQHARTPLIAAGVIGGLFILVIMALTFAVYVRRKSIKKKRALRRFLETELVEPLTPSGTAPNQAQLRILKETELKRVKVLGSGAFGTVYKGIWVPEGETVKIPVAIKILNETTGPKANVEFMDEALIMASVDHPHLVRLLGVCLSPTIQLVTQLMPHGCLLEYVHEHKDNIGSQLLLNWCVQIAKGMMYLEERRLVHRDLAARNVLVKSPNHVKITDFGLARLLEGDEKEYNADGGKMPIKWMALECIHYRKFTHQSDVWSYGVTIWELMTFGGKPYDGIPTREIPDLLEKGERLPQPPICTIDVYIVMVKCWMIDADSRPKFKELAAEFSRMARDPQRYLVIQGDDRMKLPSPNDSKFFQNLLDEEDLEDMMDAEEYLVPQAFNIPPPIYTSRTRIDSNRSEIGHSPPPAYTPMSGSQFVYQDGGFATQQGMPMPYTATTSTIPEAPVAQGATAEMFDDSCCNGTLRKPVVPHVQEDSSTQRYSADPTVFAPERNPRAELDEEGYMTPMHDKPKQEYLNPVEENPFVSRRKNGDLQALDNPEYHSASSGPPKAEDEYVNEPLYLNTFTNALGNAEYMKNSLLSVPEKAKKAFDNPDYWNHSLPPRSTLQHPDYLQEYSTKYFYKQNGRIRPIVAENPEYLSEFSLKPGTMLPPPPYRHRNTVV

| Binder | Schwann cells (SC) (ErbB3) Avg EC50 [1] | CM % Agonism AVG [2] [%] | Cardiomyocyte (CM) (ErbB4) Avg EC50 [2] | Selectivity SC/CM [2] |
| --- | --- | --- | --- | --- |
| B1 | 510 nM | 28 | 2.22 nM | 229 |
| B2 | > 10000 nM and 10000 nM | 78 | 1.62 nM and 0.772 nM | > 10000 |
| B3 | 10000 nM | 106 | 1.44 nM | > 10000 |
| B4 | 10000 nM | 106 | 0.712 nM | > 10000 |
| B5 | 10000 nM | 96.5 | 1.1 nM | > 10000 |
| B6 | 10000 nM | 91.8 | 0.825 nM | > 10000 |
| B7 | 10000 nM | 85.9 | 0.695 nM | > 10000 |
| B8 | 10000 nM | 87.5 | 0.58 nM | > 10000 |
| B9 | 10000 nM | 90.7 | 0.39 nM | > 10000 |
| B10 | 17.2 nM | 91.7 | 0.311 nM | 55.4 |
| B11 | 10000 nM | 96 | 0.557 nM | > 10000 |
| B12 | 10000 nM | 99.8 | 0.33 nM | > 10000 |
| B13 | 10000 nM | 98 | 0.224 nM | > 10000 |
| B14 | 3.62 nM | 97.5 | 0.587 nM | 6.17 |
| B15 | > 10000 nM | 83.4 | 0.34 nM | > 10000 |
